The chains are these.
B1: wild type GSI motif peptide (…), SMRT amino acids 1450-1469 with an amino-terminal cysteine [modified: BODIPY-TMR coupled to the N-terminal cysteine; BODIPY-TMR coupled to the N-terminal cysteine] [not stated] (parent)
chain 1: CPRPLKEGSITQGTPLKYDTG
chain 2: TKPRFTTGLVYDTLMLKHQCTCGSSSSHPEHAGRIQSIWSRLQETGLRGKCECIRGRKATLEELQTVHSEAHTLLYGTNPLNRQKLDSKKLLGSLASVFVRLPCGGVGVDSDTIWNEVHSAGAARLAVGCVVELVFKVATGELKNGFAVVRPPGHHAEESTPMGFCYFNSVAVAAKLLQQRLSVSKILIVDWDVHHGNGTQQAFYSDPSVLYMSLHRYDDGNFFPGSGAPDEVGTGPGVGFNVNMAFTGGLDPPMGDAEYLAAFRTVVMPIASEFAPDVVLVSSGFDAVEGHPTPLGGYNLSARCFGYLTKQLMGLAGGRIVLALEGGHDLTAICDASEACVSALLGNELDPLPEKVLQQRPNANAVRSMEKVMEIHSKYWRCLQRTTSTAGRSLIEAQTCENEEAETVT

Bounds are passed on as bounds.

Variants of B1 are the subject of the test. In words: fluorescence anisotropy. To be noted: with HDAC4 catalytic domain.
As for chain 1 I10D, the Kd was more than 1000 µM.
In the case of chain 1 I10A, the Kd was more than 1000 µM.
As for chain 1 T14S, the Kd is more than 1000 µM.
Take chain 1 G8A: the Kd was more than 1000 µM.
With chain 1 S9A, the Kd was more than 1000 µM.
As to chain 1 S9T, the Kd was more than 1000 µM.
As to chain 1 G13A, the Kd is more than 1000 µM.

Values taken from publication PMC4505066, “Insights into the Recruitment of Class IIa Histone Deacetylases (HDACs) to the SMRT/NCoR Transcriptional Repression Complex” (The Journal of Biological Chemistry, 2015).
